Test results published in patent US20240101646A1 (VANDERBILT UNIVERSITY, published 2024).

Biological target: T1, SARS-CoV-2 NTD (SARS-CoV-2, UniProt P0DTC2 14-305)
T1 construct: domain: NTD
Experiment: ELISA, antigen plated at 2 µg/mL (FIG. 12A)

B1: antibody 5317-10 (antibody, V domains shown)
VH: EVQLVQSGAEVKKPGESLTISCKASGYRFTSNWITWVRQMPGKGLEWMGRIDPDDPYSNSSPSFQGHATLSLDKAINTAYLHWSSLKASDTAMYYCARVNRVGDGPDFWGQGTLVTVSS
VL: DIVMTQSPLSLPVTPGEPASISCRSSQSLLFGNGYTYLNWYLQKPGQSPQLLIYLGSNRASGVPDRFSVSGSGTDFTLIISRVEAEDVGVYFCMQALQTPWTFGQGTKVEIK
  binding result: no binding
